The experiment deals with T1, human complement C3 (human, UniProt P01024 23-1663).
T1 construct: also called native C3; pro-molecule C3
Put plainly: ELISA on purified C3b or C3 (FIG. 8). How it is done:
In another experiment, purified C3b or C3 were captured in microtiter plates using a polyclonal C3 antibody. Binding of S77 (A) or a polyclonal anti C3 antibody (B) to captured C3b or C3 was determined using a secondary HRPO-conjugated antibody. Color was developed with TMB (KPL), stopped in 2N H₂SO₄ and absorbance read at 450 nm.
C3b ELISA for testing specificity of anti C3b antibody S77. Twenty-five μL of capture antibody (YW144.2.45.S77 Affinity Matured xC3/C3b (Genentech) 2 μg/ml) diluted in PBS was added to wells of a microtitre plate and incubated overnight at 4° C. The plate was washed 3× with wash buffer (PBS/0.05% Tween 20 (20× stock; Media Prep; Cat. A3355)). Fifty μL of block buffer was added to the wells and the plate incubated for 1-3 hours with gentle agitation (room temperature) and washed 3× with wash buffer. […] OD reading of plate was taken (450/630 nm). […]
On the technique in general: An ELISA detects its analyte on a solid surface through an enzyme-linked reagent.

T1 sequence (P01024 other isoform, or with tags, fused parts or gaps limits assumed): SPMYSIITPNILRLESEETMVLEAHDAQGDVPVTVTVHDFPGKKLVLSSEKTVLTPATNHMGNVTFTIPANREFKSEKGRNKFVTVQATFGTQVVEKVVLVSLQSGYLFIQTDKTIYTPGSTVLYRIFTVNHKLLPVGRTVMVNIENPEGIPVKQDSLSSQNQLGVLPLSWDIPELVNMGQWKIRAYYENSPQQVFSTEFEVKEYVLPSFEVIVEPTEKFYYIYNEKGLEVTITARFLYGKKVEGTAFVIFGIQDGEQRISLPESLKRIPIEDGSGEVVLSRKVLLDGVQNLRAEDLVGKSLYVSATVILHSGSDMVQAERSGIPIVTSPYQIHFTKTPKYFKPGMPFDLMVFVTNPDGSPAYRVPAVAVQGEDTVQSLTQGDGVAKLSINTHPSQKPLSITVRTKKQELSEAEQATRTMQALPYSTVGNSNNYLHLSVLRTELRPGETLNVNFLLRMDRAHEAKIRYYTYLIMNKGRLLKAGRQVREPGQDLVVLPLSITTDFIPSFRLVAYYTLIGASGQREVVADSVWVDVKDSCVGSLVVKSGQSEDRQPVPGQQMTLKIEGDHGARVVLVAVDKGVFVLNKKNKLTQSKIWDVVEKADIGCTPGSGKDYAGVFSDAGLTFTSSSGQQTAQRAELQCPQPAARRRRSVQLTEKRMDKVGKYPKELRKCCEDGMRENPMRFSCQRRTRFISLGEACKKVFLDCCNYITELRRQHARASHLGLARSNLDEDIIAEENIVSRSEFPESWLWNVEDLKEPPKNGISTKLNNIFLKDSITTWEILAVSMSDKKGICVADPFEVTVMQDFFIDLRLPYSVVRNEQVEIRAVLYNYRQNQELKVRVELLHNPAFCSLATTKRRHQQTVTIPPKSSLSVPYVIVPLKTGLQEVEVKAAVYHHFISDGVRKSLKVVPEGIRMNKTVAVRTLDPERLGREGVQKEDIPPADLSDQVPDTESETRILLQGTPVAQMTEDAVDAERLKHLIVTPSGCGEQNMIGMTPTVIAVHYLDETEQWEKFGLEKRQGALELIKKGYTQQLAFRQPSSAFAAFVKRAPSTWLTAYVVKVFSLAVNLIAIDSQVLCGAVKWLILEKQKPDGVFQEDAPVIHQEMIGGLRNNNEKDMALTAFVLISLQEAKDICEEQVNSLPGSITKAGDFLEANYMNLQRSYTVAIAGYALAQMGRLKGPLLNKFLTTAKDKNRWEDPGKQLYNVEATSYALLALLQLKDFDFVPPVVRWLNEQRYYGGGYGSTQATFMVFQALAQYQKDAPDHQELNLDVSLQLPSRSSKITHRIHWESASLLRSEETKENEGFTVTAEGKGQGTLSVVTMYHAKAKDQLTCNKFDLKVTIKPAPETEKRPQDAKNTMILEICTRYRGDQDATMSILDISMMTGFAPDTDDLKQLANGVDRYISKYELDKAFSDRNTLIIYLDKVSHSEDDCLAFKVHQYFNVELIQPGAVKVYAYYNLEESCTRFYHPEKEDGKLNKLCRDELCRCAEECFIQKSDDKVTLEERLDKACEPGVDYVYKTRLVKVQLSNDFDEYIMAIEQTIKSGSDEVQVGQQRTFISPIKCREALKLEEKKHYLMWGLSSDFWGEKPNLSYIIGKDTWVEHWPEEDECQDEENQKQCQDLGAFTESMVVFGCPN

B1: antibody S77 (YW144.2.43.S77), format in the assay not stated (antibody, V domains shown)
VH: EVQLVESGGGLVQPGGSLRLSCAASGFSFTSSSVSWVRQAPGKGLEWVGLIYPYNGFNYYADSVKGRFTISADTSKNTAYLQMNSLRAEDTAVYYCARNALYGSGGYYAMDYWGQGTLVTVSS
VL: DIQMTQSPSSLSASVGDRVTITCRASQDVSTAVAWYQQKPGKAPKLLIYSASFLYSGVPSRFSGSGSGTDFTLTISSLQPEDFATYYCQQSYATLPTFEQGTKVEIK
notes: also called anti C3b antibody S77
As to B1, the binding result is recorded as “no binding”.

Source of the values: US20090081211A1 (Genentech, published 2009).
